T1: Recombinant canine IL-4 (R&D Systems, Catalog: 752-CL/CF) (canine, UniProt O77762 25-132)
T1 sequence (looked up): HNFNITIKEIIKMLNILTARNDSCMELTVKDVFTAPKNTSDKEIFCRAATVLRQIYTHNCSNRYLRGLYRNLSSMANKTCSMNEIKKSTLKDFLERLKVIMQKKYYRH

T2: Canine IL-13 with C-terminal Avi-HIS tag (canine, biotin label when loaded on SA biosensors (Example 4); site not stated)
T2 construct: also called cIL-13; biotinylated avitag-cIL13
T2 chain: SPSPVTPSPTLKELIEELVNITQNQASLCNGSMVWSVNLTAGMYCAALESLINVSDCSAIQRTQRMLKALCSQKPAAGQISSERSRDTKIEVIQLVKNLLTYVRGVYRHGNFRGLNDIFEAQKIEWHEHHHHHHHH

B1: IL4-P4A-1A4VH-cIgGB/IL4-P4A-1A4VL-cCL (antibody, V domains shown)
VH: EVQLVESGGDLVKPGGSLRLSCVASGFNFSRYSMSWVRQAPEKGLQLVAAVNSGGSRTWYADAVQGRFTVSRDNAKNTLFLEMSSLKLEDTAMYYCAKDLWSTTIAEYDYWGQGTLVTVSS
VL: SYVLSQPPSVSVTPSETAHITCGGNNIGSKYVQWIRQSAGQAPVTIIYGNTNRPTGIPERFSGANSGNTATLTISGVLAEDEADYYCQVGDTDTTVFGGGTHLTVL
B2: IL4-P3-1B10VH-cIgGB/IL4-P3-1B10VL-cCL (antibody, V domains shown)
VH: EVQLVESGGDLVKPGGSLRLSCVASGFTFSNYDMSWVRQAPGKGLQWVSTISYDGNNTYYSDAVKGRFTISRDNARNTLYLQMNSLRAEDTAVYYCAKEFDIPWDNFDYWGQGTLVTVSS
VL: QSVLTQPTSVSAALGQRVTISCTGSNANIGSVYDVQWYQQLPGKSPKTIIYGNTHRPSGVPVRFSGSKSGSTATLTITGIQAEDEADYYCQSYDATLHYVFGSGTQLTVLG
B3: IL4-P3-1A6VH-cIgGB/IL4-P3-1A6VL-cCL (antibody, V domains shown)
VH: EVPLVESGGDLVKPGGSLRLSCVASGFTFHNYDLSWIRQLPGGGLQWVADIDKSGLTFYADAVKGRFTISRDNAKNTLYLQMNSLRAEDTAVYYCATWPLGSWYTETFEYWGQGTLVTVSS
VL: QPVLTQPPSVSAALGQRVTISCNTNIGSPYDVQWYQQLPGKSPKTIIYGNSNRPSGVPVRFSGSKSGSTATLTIAGIQAEDEADYYCQSYDDNVDGYVFGSGTQLTVLG
B4: IL13 P3-1 B4 scFv (scFv)
scFv: SYVLTQSPSVSGSLGQTVTISCSGTTIGVVGANWYQQLPGKAPKLLVHSDGGRLSGVPDRFSGSESGNSAALTITGLQAEDEADYYCQSFDTTLGYVFGSGTQLTILGGGSSRSSSSGGGGSGGGGELTLQESGPGLVKPSQTLSLTCVVSGGSVTSNYYWNWIRQRPGRGLEWMGYWTGSTNYNPAFQGRISITADTAKNHFSLQLTSMTTEDTAVYYCARASTWLHGMDFWGHGTSLFVSSESPSPPNLTSGQAGQ
notes: scFv purified from E. coli periplasm on Ni-NTA
B5: IL13 P3-1 C2 scFv (scFv)
scFv: QAVLNQPASVSGSLGQRVTISCSGSSSNIGRGFVGWYQQLPGTRPKTLIYGDTFRPSGVPDRFFGSRSGSTATLTISGLQAEDEADYYCSTWDDSLAALLFGGGTHLTVLGGGSSRSSFSGGGGSGGGGEVQLVESGGDLVKPGGSLRLSCAASGFTFTDYDMSWVRQAPGKGLQWVATTSNGGSGTYYSDAVKGRFTISRDNAKNTLYLEMNRLRAEDTAVYYCVKEIYPASIDFWGLGTLVTVSSASTTAPSVTSGQAGQ
notes: as for B4
B6: IL 13 P3-1C6 scFv (scFv)
scFv: QSVLTQPASVSGSLGQRVTISCSGRTNNIGYFGANWYQQVPGKAPKLLVSSYGNRPSGVPDRFSASNSANSATLTITGLQAEDEADYYCQSFDTTLGAVVFGGGTQLTVLGGGSSRSSSSGGGGSGGGGELTLQESGPGLVKPSQTLSLTCVVSGGSVTNTYEWDWIRQRPGRGLEWMGSWTDNTWYNPAFQGRISITADTAKNQLSLQLSSVTTGDTAVYFCARWTKRWGYDYWGQGTLVTVSSASTTAPSVTSGQAGQ
notes: scFv purified from E. coli periplasm on Ni-NTA; also called IL13 1C6
B7: IL13 P3-1 G5 scFv (scFv)
scFv: SYELTQPPSVSVSLGQTATISCSGESLSKYYAQWFQQKAGQAPVLVIYQDTERPSGIPDRFSGSSSGNTHTLTISGARAEDEADYYCESAISPDTYVFGSGTQLTILGGGSSRSSSSGGGGSGGGGEVQLVQSGGDLVKPGGTLRLSCVASGFTFSSYDMSWVRQSPGKGLQWVAAIWNDGSNTEYADAVKGRFTVSRDNAKNTVYLEMNSLRAEDTAMYYCVKEGPSYGYFDYWGQGTLVTVSSASTTAPSVTSGQAGQ
notes: as for B4

Each binder was assayed against T1, Recombinant canine IL-4 (R&D Systems, …) (assay: cell-based or functional assay).

Question: With B1 as the binder, how does the “IL-4 IC50 (nM); inhibition of canine IL-4 mediated STAT6 phosphorylation in DH82 cells” value (“IL-4 IC50 (nM); inhibition” for short) read?
Answer: Its value is 4.24 nM.

Question: B2 was tested. Which “IL-4 IC50 (nM); inhibition” value did it give?
Answer: The value was 87.8 nM.

Question: For B3, which “IL-4 IC50 (nM); inhibition” value is on record?
Answer: The value was 0.56 nM.

Biological target: T2, Canine IL-13 with C-terminal Avi-HIS tag
Experiment: BLI (OCTET HTX); biotin-cIL-13 on SA biosensors, scFv in solution; 1:1 model
Description: The in vitro binding of anti-canine IL-4 scFv and IL-13 scFv to canine IL-4 and canine IL-13, respectively, was determined by OCTET HTX using SA biosensors and Data Acquisition 12.0 software. First, biotin-labeled antigen (cIL-4 or cIL-13) was loaded onto the pre-rehydrated SA biosensors for 60 seconds (60s) at a concentration of 5 μg/mL. Second, the biosensors were placed into the OCTET Kinetics Buffer (PBS+0.02% Tween20, 0.1% BSA) for the blocking phase for 120s. Third, for the association phase, cIL-4 or cIL-13 antigen loaded biosensors were placed into 2-fold serial dilutions from 500 nM down to 7.8 nM of anti-cIL-4 or anti-cIL-13 scFvs, respectively, in OCTET Kinetics Buffer for 60s. The last well was buffer alone and that sensor was used for reference sensor subtraction. Finally, the biosensors were placed into OCTET Kinetics Buffer for the dissociation phase for 300s. The analysis was performed using Data Analysis 12.0 software and curves were fitted using a 1:1 binding model.

Question: B4 was tested. Which Kd did it give?
Answer: The Kd was 13.1 nM.

Question: And the koff?
Answer: The koff was 0.00224 s⁻¹.

Question: What about the kon of the same binder?
Answer: The kon was 320000 M⁻¹ s⁻¹.

Question: B5 was tested. Which Kd did it give?
Answer: The Kd was 77.4 nM.

Question: And the koff?
Answer: The koff was 0.00192 s⁻¹.

Question: And the kon?
Answer: The kon was 29600 M⁻¹ s⁻¹.

Question: B6 was tested. Which Kd did it give?
Answer: The Kd was 45.2 nM.

Question: What about the koff of the same binder?
Answer: Its koff is 0.0107 s⁻¹.

Question: And the kon?
Answer: The kon was 304000 M⁻¹ s⁻¹.

Question: Which results are given for B7?
Answer: Kd: 158 nM; koff: 0.0158 s⁻¹; kon: 104000 M⁻¹ s⁻¹
